The values below come from PMC12014896 (2025).

The chains are these.
B1: COVIC-250 (antibody, V domains shown)
VH: QVQLQQSGPGLVKPSETLALTCTVSGGSTSSYYWSWIRQPPGKGLEWIGSIYYSGSTDYNPSLKSRVTISLDTSKTQFSLKLSSVTAADTAVYYCARVDTSGWYTGDVFDYWGQGTLVTVSS
VL: DIQMTQPPSSLSASVGDRVTITCRASQSLSSYLNWYQQKPGKAPKLLIYAVFSLQSGVPSRFSGSGSGTDFTLTISSLQPEDFATYYCQQSYSTPLTFGGGTKVEIK
B2: COVIC-184 (antibody, V domains shown)
VH: QITLKESGPTLVKPTQTLTLTCTFSGFSLSTSGVGVGWIRQPPGKALEWLALIYWDDDKRYSPSLKSRLTITKDTSKNQVVLTMTNMDPVDTATYYCAHHKIERIFDYWGQGTLVTVSS
VL: QSALAQPASVSGSPGQSITISCTGTSSDVGAYNYVSWYQQHPGKAPKLMIYDVSKRPSGVSNRFSGSKSGNTASLTISGLQAEDEADYYCSSYTTSSTVFGGGTKLTVL
B3: COVIC-295 (antibody, V domains shown)
VH: QVQLVQSGAEVKKPGSSVKVSCKASGGTFSSYSFIWVRQAPGQGLEWMGRIIPILGIANYAQKFQGRVTITADKSTTTAYMELSSLRSEDTAVYYCARGTEYGDYDVSHDWGQGTLVTVSS
VL: not shown
B4: COVIC-128 (antibody)
chain 1: not shown
chain 2: QVQLQESGGGLVQAGGSLRLSCAASGRTFSEYAMGWFRQAPGKEREFVATISWSGGSTYYTDSVKGRFTISRDNAKNTVYLQMNSLKPDDTAVYYCAAAGLGTVVSEWDYDYDYWGQGTQVTVSSGGSGGSQVQLQESGGGLVQAGGSLRLSCVASGSIFSINAMDWYRQAPGKQRELVAGITSGGSTNYGDFVKGRFTISRDNAKNTVYLQMDSLKPEDTAVYYCAAEVGGWGPPRPDYWGHGTQVTVSSGGGGSGGGGSKRTVAAPSVFIFPPSDEQLKSGTASVVCLLNNFYPREAKVQWKVDNALQSGNSQESVTEQDSKDSTYSLSSTLTLSKADYEKHKVYACEVTHQGLSSPVTKSFNRGEC
B5: COVIC-331 (antibody, V domains shown)
VH: EVQLVESGGGLIQVGGSLRLSCAASGLTVTSNYMNWVRQGPGKGLEWVSLIYSGGTTYYADSVKGRFTISRDDSKNTLYLQMNSLRAEDTAVYYCARPIVGARSGMDVWGQGTAVTVSS
VL: DIQMTQSPSSLSASVGDRVTITCQASQDINKYLNWYQQKPGKAPKLLIYDASNLETGVPSRFSGSGSGTDFTFTISSLQPEDLATYYCHQFDNLPGTFGGGTKVEIK
B6: COVIC-290 (antibody, V domains shown)
VH: QMQLVQSGPEVKKPGTSVKVSCKASGFTFSSSAVQWVRQARGQHLEWIGWIVVGSGNTNYAQKFQERVTLTRDMSTRTAYMELSSLRSEDTAVYYCAAPNCNSTTCHDGFDIWGQGTVVTVSS
VL: EIVLTQSPGTLSLSPGERATLSCRASQSVRSSYLGWYQQKPGQAPRLLIYGASSRATGIPDRFSGSGSGTDFTLTISRLESEDFAVYYCQQYDNSPWTFGQGTKVEIK
B7: COVIC-310 (antibody)
chain 1: QVQLVQSGAEVKKPGSSVKVSCKASGGTFGISWVRQAPGQGLEWMGRIIPILGTANHAQKFQGRVTITADKSTGTVYMELSSLRSEDTAVYYCARDGDSGSYYETLGFDYWGQGTLVTVSSGGGGSGGGGSGGGGQVQLVESGGGVVQSGRSLRLSCAASGFTFSSYAMHWVRQAPGKGLEWVAVISHDGSNTYYEDSVKGRFTISRDNSKNTLHLQVNSLRVEDTAVYYCARAKGEVRYFDWAEQGGDYWGQGTLVTVSS
chain 2: QSALTQPPSASGSPGQSVTISCTGTSSDVGGYNYVSWYQQHPGKAPKLMIYEVNKRPSGVPDRFSGSKSGNTASLTVSGLQAEDEADYYCSSYAGSNNLVFGGGTKLTVLGGGGSGGGGSGGGGSYELTQPPSVSVSPGQTARITCSGDALPKKYAYWYQQKSGQAPVLVIYEDSKRPSGIPERFSGSSSGTMATLTISGAQVEDEADYYCYSTDNSGDHGVFGGGTKLTVL
B8: COVIC-143 (antibody, V domains shown)
VH: EVQLVESGGGVVQPGRSLRLSCAASGFTFSNYAMHWVRQAPGKGLEWVAVISYDGSNKYSADSVKGRFTISRDNSKNTLYLQMNSLRPEDTAVYYCARDGVGTMVRGVMSPLFDYWGQGTLVTVSS
VL: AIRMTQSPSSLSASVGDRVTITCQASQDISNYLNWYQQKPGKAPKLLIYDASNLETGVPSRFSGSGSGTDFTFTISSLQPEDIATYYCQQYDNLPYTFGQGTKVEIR
B9: COVIC-186 (antibody, V domains shown)
VH: QVQLLQSGAEVKKPGASVKVSCKASGYSFTSYYMHWVRQAPGQGLEWMGIINPSGGGTTYAQKFQGRVTMTRDTSTSTVYMELSSLRSEDTAVYYCARPGGGSYQEFDYWGQGTLVTVSS
VL: DIQMTQSPSSLSASVGDRVTITCRASQSISSYLNWYQQKPGKAPKLLISAASSLQSGVPSRFSGSGSGTDFTLTISSLQPEDFATYYCQQSYNTLQVTFGGGTKVEIK
B10: COVIC-360 (antibody, V domains shown)
VH: EVQLVESGGGLVQPGGSLRLSCKASGISVAPHAVTWVRQAPGKGLEWIGVIASNADTYYASWAKGRFTISRDNSKNTLYLQMNSLRAEDTAVYYCARHPGSAGYGYTYYYAMDPWGQGTLVTVSS
VL: DIQMTQSPSSLSASVGDRVTITCQASQKIHYAINWYQQKPGKAPKLLIYGTSYLGGGVPSRFSGSGSGTDFTLTISSLQPEDFATYYCQQGYIVPNSFGGGTKVEIK
B11: COVIC-31 (antibody, V domains shown)
VH: EVQLVESGVEVKKPGASVKVSCKAFGYTFTGQDMHWVRQAPGQGLEWMGWINPSSAGTNYAQKFQGRVTMTRDTSISTAYMELSRLRSDDTSVYYCRKMLTIFGKVNQTMLLISGAKGQWSPSLQWGQGTMVTVSS
VL: DIVMTQTPLSLSVTPGQPASISCKSGQSLLHSDGKTYLYWYLQKPGQPPQLLIYEVSNRFSGVPDRFSGSGSGTDFTLKISRVEAEDVGVYYCMQSIQLPPTFGQGTKVEIK
B12: COVIC-122 (antibody)
chain: QVQLQESGGGLVQAGGSLRLSCAASGRTFSEYAMGWFRQAPGKEREFVATISWSGGSTYYTDSVKGRFTISRDNAKNTVYLQMNSLKPDDTAVYYCAAAGLGTVVSEWDYDYDYWGQGTQVTVSSGGSGGSQVQLQESGGGLVQAGGSLRLSCAASGRTFSEYAMGWFRQAPGKEREFVATISWSGGSTYYTDSVKGRFTISRDNAKNTVYLQMNSLKPDDTAVYYCAAAGLGTVVSEWDYDYDYWGQGTQVTVSSGGGGSGGGGSKKKPLDGEYFTLQIRGRERFEMFRELNEALELKDAQAGKEPGGGGGSGGGGSQVQLQESGGGLVQAGGSLRLSCAASGRTFSEYAMGWFRQAPGKEREFVATISWSGGSTYYTDSVKGRFTISRDNAKNTVYLQMNSLKPDDTAVYYCAAAGLGTVVSEWDYDYDYWGQGTQVTVSSGGSGGSQVQLQESGGGLVQAGGSLRLSCAASGRTFSEYAMGWFRQAPGKEREFVATISWSGGSTYYTDSVKGRFTISRDNAKNTVYLQMNSLKPDDTAVYYCAAAGLGTVVSEWDYDYDYWGQGTQVTVSS
B13: COVIC-297 (antibody, V domains shown)
VH: EVLLVESGGGLIQPGGSLRLSCAASGLTVSSNYMSWVRQAPGKGLEWVSVIYSGGSTFYADSVKGRFTISRDNSKNTLYLQMNSLRAEDTAVYYCARDLVTWGLDYWGQGTLVTVSS
VL: AIQLTQSPSSLSASVGDRVTITCRASQGISSYLAWYQQKPGKAPKLLIYAASTLQSGVPSRFSGSGSGTDFTLTISSLQPEDFATYYCQLLNTDPITFGQGTRLEIK
B14: COVIC-158 (antibody, V domains shown)
VH: EVQLVESGGGLIQPGGSLRLSCAASGLTVSSNYMNWVRQAPGKKLEWVSVIYSGGSTFYADSVRGRFTISRDNSKNTLFLQMNSLRAEDSAVYYCARDLGPYGVDVWGQGTTVTVSS
VL: DIQLTQSPSFLSASVGDRVTITCWASQGISSYLAWYQQKPGKAPKLLIYAASTLQSGVPSRFSGSGSGTEFTLTISSLQPEDFATYYCQQLNSYPLTFGQGTRLEIKR

This test concerns the target SARS-CoV-2 spike RBD (Wuhan-Hu-1) (Severe acute respiratory syndrome …, UniProt P0DTC2). Description: SPR. On the technique in general: In SPR one partner is held on a chip, and binding of the other changes the refractive index at the surface.
For the molecule B1, the affinity, expressed as Kd, was 17.7 nM.
Then B2, with 34.4 nM.
Take B3: binding was put at a Kd of 0.266 nM.
Regarding B4, binding was put at a Kd of 119 nM. This Kd is about 450-fold higher than that of the molecule before.
Then B5, with 0.0704 nM; and B6, with 0.326 nM.
Then B7, with 1.85 nM; and B8, with 5.91 nM.
Then B9, with 6.1 nM; and B10, with 0.0132 nM.
Regarding B11, the Kd stood at 70.2 nM. Compared with the last molecule, the Kd is about 5300-fold higher.
Then B12, with 203 nM; and B13, with 0.271 nM; and B14, with 1.59 nM.

By Kd is commonly meant the constant that tells how readily two partners part at equilibrium.
